Experimental data taken from paper PMC2796841 (Integrative biology : quantitative biosciences from nano to …, 2009).

Test system: tumor
Conditions: mouse, in vivo

Substance: PAMAM-e9-xPLGLAG-r9-k(Cy5)
- time of maximal contrast after injection: 48 h
